Results reported in patent US8153597B2, “Modulators of the ABC transporter family and methods for their use” (priority 2003, dated 2012).
Where two headings read alike, the source gives them in different places.

Assays:
[1] = test system: CFTR-mediated Cl− secretion; experiment: Ussing chamber: CFTR-mediated Cl− secretion (Isc) across polarized CFBE41o− human airway epithelial cells; format: cell-based
Method: These experiments were conducted in CFBE41o− cells stably expressing either wt-CFTR or ΔF508-CFTR and in parental (non-transfected ΔF508/ΔF508) CFBE41o− cells. To increase apical membrane expression of ΔF508-CFTR, cells were grown at 27° C. for 36 hours in accordance with methods set forth in Example 5. […] Parental CFBE41o− cells, and CFBE41o− cells stably expressing either wt-CFTR or ΔF508-CFTR were incubated at 27° C. in a CO2 incubator in the absence of antibiotics. Vehicle or PA14 bacteria (5×10^8 CFU/ml) were added to the apical side of the monolayers.
Monolayers grown on Transwell (6.5 mm diameter) or Snapwell (12 mm diameter) permeable supports, as described in Example 1, were mounted in an Ussing-type chamber (Jim's Instruments; Iowa City, Iowa or Physiologic Instruments; San Diego, Calif.) and bathed in solutions, pH 7.4 maintained at 37° C. and stirred by bubbling with 5% CO2/95% air. Short circuit current (Isc) was measured by voltage-clamping the transepithelial voltage across the monolayers to 0 mV with a voltage clamp (model VCC MC6, Physiologic Instruments, San Diego, Calif.). Current output from the clamp was digitized by an analog-to-digital converter (iWorx; Dover, N.H.). Data collection and analysis were done with LabScribe v1.6 Software (iWorx; Dover, N.H.). Stimulated Isc was measured after addition of 100 μM CPT-cAMP (Calu-3 and MDCK cells) or 20 μM forskolin (wt-CFTR CFBE41o− cells) to the apical and basolateral bath solution or 50 μM genistein (ΔF508-CFTR CFBE41o− cells) to the apical bath solution. Net stimulated Isc (ΔIsc) was calculated by subtracting the baseline Isc measured before stimulation from the peak Isc measured after stimulation. Glybenclamide (200 μM) was added to the apical bath solution to inhibit CFTR-mediated Isc.
CFBE41o− cells were bathed in solutions with a basolateral-to-apical Cl− gradient in the presence of amiloride (100 μM) in the apical bath solution to inhibit Na+ absorption through the epithelial Na+ channel (ENaC). […]

MDCK-GFP-MDR1 cells = format: cell-based, canine; details: pre-treatment 60 min, then Dox (0, 1, 3, 5 or 10 μM) for 4 hrs at 37 C; buffer ˜5%
Description: The studies above indicate that CIF reduces the plasma membrane expression of P-glycoprotein (i.e. Pgp or multidrug resistance protein (MDR)), MRP2, BCRP and other members of the ABC transmembrane protein family, whose functions include the transport of small molecules across cell membranes. More specifically, members of the ABC transporter family function by preventing therapeutics including but not limited to anti-cancer therapies and antibiotics from accumulating in the central nervous system, and by conferring the observed “drug resistance” of numerous cancers. […]
MDCK-GFP-MDR1 cells, MDCK-C7 cells stably transfected with GFP-Pgp under the transcriptional control of human MDR1 promoter as described by Maitra et al. (Biochem J 2001 355:617-624) were used in these studies. […] Cell viability was then assessed using the CellTiter 96Queous One Solution Cell Proliferation assay. After incubating for 4 hours at 37° C., the absorbance was determined at 490 nm.

[2] = Epoxide hydrolase activity assay, degradation of (S)-NEPC; format: biochemical; details: purified protein; 60 minute incubation period
Method: To assess whether Cif acts as an epoxide hydrolase, its ability to degrade the synthetic epoxide hydrolase substrate (2S,3S)-trans-3-Phenyl-2-oxiranylmethyl 4-nitrophenyl carbonate ((S)-NEPC) was assessed. This assay measures the production of the product p-nitrophenol, which is yellow in color and absorbs maximally at 405 nm.
Purified PA2934-His was assayed for its ability to degrade the epoxide hydrolase synthetic substrate (2S,3S)-trans-3-Phenyl-2-oxiranylmethyl 4-nitrophenyl carbonate ((S)-NEPC) (Sigma, St. Louis, Mo.). […] Degradation of (S)-NEPC was measured as an increase in absorbance at OD405 utilizing a Molecular Devices SpectraMax M2 plate reader. Reactions were normalized to controls lacking enzyme, accounting for spontaneous hydrolysis of the substrate.

wt-CFTR = experiment: Cell-surface biotinylation: apical membrane expression of wt-CFTR in canine (MDCK) cells; format: cell-based; details: purified protein
Method: In these experiments two human cell lines endogenously expressing CFTR, Pgp, BCRP and MRP2, and polarized canine and rat cells stably expressing wild-type (wt)-CFTR and/or Pgp, were contacted with a pelleted fraction of either P. aeruginosa strain PA14 or eight different clinical isolates. Apical membrane expression of CFTR, Pgp, and MRP2 was measured by cell-surface biotinylation. Epithelial cells were then lysed and biotinylated proteins were isolated, separated and amounts of apical membrane expression of CFTR, PgP and MRP2 were determined.
Epithelial cell cultures were grown on Transwell permeable growth supports (24 mm diameter, 0.4 μm pore size; Corning Corporation, Corning, N.Y.: #3412). Apical membrane expression of CFTR, Pgp, MRP1, BCRP and MRP2 was measured by cell-surface biotinylation as described by Lisanti, et al. (J. Cell Biol. 1989 109:2117-2127) and Swiatecka-Urban et al. J. Biol. Chem. 2002 277(42):40099-105).
MDCK cells stably expressing GFP-wt-CFTR or GFP-ΔF508-CFTR fusion proteins were established and maintained in culture in a 5% CO2/95% air incubator at 37° C. in MEM complete medium containing 50 U/ml penicillin, 50 μg/ml streptomycin, 2 mM L-glutamine, 10% FBS, and 150 μg/ml G418. Addition of GFP to the N-terminus of CFTR has no effect on CFTR localization, trafficking, function as a Cl channel, or on its degradation. MDCK cells were seeded on Transwell permeable supports (0.2×10^6 on 6.5 mm and 24 mm diameter, 0.4 μm pore size; Corning Corporation; Corning, N.Y.) and grown in culture at 37° C. for 7-10 days. Under these conditions, MDCK cells become polarized. Sodium butyrate (5 mM; Sigma-Aldrich; St. Louis, Mo.) was added to the MDCK cell culture medium 16-18 hours before experiments to stimulate CFTR expression.
In these experiments, apical membrane proteins were biotinylated at 4° C. using a derivative of biotin (EZ-Link™ Sulfo-NHS-LC-Biotin: Pierce). […] Biotinylated CFTR, Pgp, BCRP and MRP-2 were analyzed by Western blotting using antibodies against CFTR, Pgp, and MRP-2, respectively. […]

| Molecule | inhibition of forskolin stimulated CFTR-mediated Cl− ion secretion [1] | reduction in cell viability (MDCK-GFP-MDR1 cells) | epoxide hydrolase activity (degradation of (S)-NEPC, absorbance at 405 nm) [2] | inhibition of forskolin stimulated CFTR-mediated Cl− ion secretion ([1]; WT-CFBE cells, added to apical face, 50 μg PA2934-His, CFTRinh-172 5 μM) | reduction of CFTR Cl− currents ([1]; WT-CFBE cells, relative to CFTRinh-172-sensitive current) | effect on apical expression of CFTR (wt-CFTR) | reduction of apical expression of CFTR (wt-CFTR; 60 minutes after treatment) | reduction of apical expression of CFTR (wt-CFTR; at 90 minutes) |
| --- | --- | --- | --- | --- | --- | --- | --- | --- |
| O=C(O)c1ccc(/C=C2\SC(=S)N(c3cccc(C(F)(F)F)c3)C2=O)cc1 [CFTRinh-172, reference compound] | ~50 μA/cm^2 |  |  |  |  |  |  |  |
| PA2934-His: purified C-terminal penta-histidine tagged PA2934 (Cif, CFTR inhibitory factor; SEQ ID NO:1) expressed in E. coli (protein, listed as Pseudomonas aeruginosa, C-terminal penta-His tag) MILDRLCRGLLAGIALTFSLGGFAAEEFPVPNGFESAYREVDGVKLHYVKGGQGPLVMLVHGFGQTWYEWHQLMPELAKRFTVIAPDLPGLGQSEPPKTGYSGEQVAVYLHKLARQFSPDRPFDLVAHDIGIWNTYPMVVKNQADIARLVYMEAPIPDARIYRFPAFTAQGESLVWHFSFFAADDRLAETLIAGKERFFLEHFIKSHSSNTEVFSERLLDLYARSYAKPHSLNASFEYYRALNESVRQNAELAKTRLQMPTMTLAGGGHGGMGTFQLEQMKAYADDVEGHVLPGCGHWLPEECAAPMNRLVIDFLSRGR |  | ~25% | capable of degrading this compound in a protein concentration dependent manner | ~30 μA/cm^2 | approximately 60% | significantly decreases | > 60% | > 70% |
